Data: US20250122278A1, “ANTI-INTERLEUKIN-9 ANTIBODY AND USE THEREOF” (GUANGDONG KEGUANDA PHARMACEUTICAL TECHNOLOGY CO., LTD., priority 2022, published 2025)

Legend:
[1] = test system: bleomycin mouse model of pulmonary fibrosis; assay: Bleomycin mouse pulmonary fibrosis model; format: in vivo; conditions: bleomycin model, 21 d
Method: (§1) 6 to 8-week-old male C57BL/6J mice (purchased from Guangdong Sijiajingda Biotechnology Co., Ltd., license No.: SCXK (Guangdong) 2020-0052) were grouped, modeled, and administered according to the protocols shown in Tables 6 and 7 below. The modeling with bleomycin (Nippon Kayaku, 15 mg powder, and dose: 1.5 mg/kg) and silica (SiO2, sigma, USA, S5631-500 g, and dose: 2.5 mg/mouse) was started on day 0 (DO). The administration was started on day 1 (D1), and normal saline was adopted as a solvent for an antibody. A positive drug pirfenidone (Beijing Kangdini Pharmaceutical Co., Ltd., 100 mg capsule) was adopted in a positive control group, and the humanized antibody hu.CA1 (VH1−VL2) of the present application was adopted in an anti-IL-9 antibody group.
(§2) A body weight of each mouse was measured every day. After the bleomycin model group was administered for 21 d and the silica model group was administered for 30 d, mice were sacrificed to collect lung tissues. The lung tissues each were stained to detect pathological changes in the lung tissues. Specifically, a degree of alveolar inflammation was detected through HE staining (an HE staining kit was purchased from Shanghai Beyotime Biotechnology, C0105M). A degree of pulmonary fibrosis was detected through Masson staining (a Masson staining kit was purchased from Nanjing Jiancheng Institute of Biological Engineering, D026-1-2). Scoring criteria for the HE staining and Masson staining were shown in Table 8 and Table 9 below, respectively (as shown in references: Matute-Bello G, Downey G, Moore B B, et al. An official American Thoracic Society workshop report: features and measurements of experimental acute lung injury in animals. Am J Respir Cell Mol Biol. 2011; 44 (5): 725-738. doi: 10.1165/rcmb.2009-0210ST and Lee Hyun Ju, Goo Jin Mo, Kim Na Ra et al. Semiquantitative measurement of murine bleomycin-induced lung fibrosis in in vivo and postmortem conditions using microcomputed tomography: correlation with pathologic scores—initial results. [J].Invest Radiol, 2008, 43: 453-60).

[2] = test system: silica mouse model of pulmonary fibrosis; assay: Silica mouse pulmonary fibrosis model; format: in vivo, C57BL/6J mice; conditions: 30 d
Method: as §1, §2

[3] = target: T1, IL-9 (Homo sapiens, UniProt P15248); assay: ELISA binding of humanized antibodies to the target antigen; conditions: ELISA of culture supernatant of 293F cells, control chimeric antibody CA1
T1 construct: pcDNA3.4-IL9 (19-144)-His (P15248); His (C); made in house; host or cells: 293F cells (transient transfection)
T1 sequence (P15248 19-144): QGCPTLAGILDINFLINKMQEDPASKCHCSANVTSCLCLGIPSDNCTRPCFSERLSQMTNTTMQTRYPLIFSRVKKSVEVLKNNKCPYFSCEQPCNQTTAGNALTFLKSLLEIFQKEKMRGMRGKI
Method: ELISA was conducted according to a standard protocol to determine the affinity of a purified antibody for the IL-9-His recombinant protein. In short, the IL-9-His recombinant protein was diluted with sterile PBS and added at 100 μL/well to a 96-well plate. The plate was incubated at 4° C. overnight and then blocked with a blocking buffer. 100 μL of a purified anti-IL-9 antibody serially diluted was added to the plate, and the plate was incubated for 1 h at room temperature. PBS was added to a control well. The plate was washed with PBST 3 times. Then 100 μL of horseradish peroxidase (HRP)-labeled anti-mouse IgG H&L (BIODRAGON, CAT #BF03001) was added, and the plate was incubated for 1 h at room temperature. The plate was washed with PBST 3 times. Then a chromogenic reaction was conducted with a 3,3′,5,5′-tetramethylbenzidine (TMB) chromogenic solution at room temperature. An OD value in each well was read by a microplate reader. Data was processed with PRISM GraphPad, and curves were plotted. The EC50 value for each candidate antibody was calculated.
Humanized antibody expression vectors carrying a designed heavy-chain or light-chain sequence were transiently transfected into 293F cells in pairs, and then a resulting culture supernatant was collected. According to a standard protocol (with reference to part 5.1 in Example 1), with a human-mouse chimeric antibody CA1 constructed with VH and VL of the original murine antibody as a control, the binding of a humanized antibody to a target antigen was detected by ELISA. The method for ELISA was the same as described in 5.1 of Example 1. […] In the follow-up experiments, the four combinations of VH1−VL2, VH1−VL4, VH2−VL4, and VH3−VL4 (hu.CA1 to hu.CA4) were taken as examples for antibody purification and function testing. […]

[4] = antibody 100 μg i.p. every other day, pirfenidone 300 mg/kg intragastric daily

| Molecule | binding to IL-9 [3] | further results |
| --- | --- | --- |
| Cc1ccc(=O)n(-c2ccccc2)c1 [pirfenidone, reference compound] |  | collagen fibers and fibrosis regions of lung tissues (Masson staining) [1]: significantly reduced; inflammation score ([1]; HE staining, FIG. 9B): significantly reduce an inflammation score; fibrosis score ([1]; Masson staining, FIG. 10B): significantly reduce a fibrosis score; lung tissue structures (HE staining) [1, 4]: improved; collagen fibers and fibrosis regions of lung tissues (Masson staining) [2]: significantly reduced; inflammation score ([2]; HE staining, FIG. 11B): significantly reduce an inflammation score; fibrosis score ([2]; Masson staining, FIG. 12B): reduce a fibrosis score; lung tissue structures (HE staining) [2, 4]: improved |
| VH1+VL1: humanized antibody, VH SEQ ID NO: 26, VL SEQ ID NO: 30 (antibody, V domains shown) VH: EVQLKQSGAEVMKPGASVKVSCKATGYTFTGYWIEWVRLAPGHGLEWMGEILPGSGSTNYNQKFQGRVTFTADTSINTAYMELSRLRSDDTAIYYCARRTYYYGIPEDYWGQGTLVTVSS VL: DIVMTQSQKFLSTSVGDRVTITCRASQNVGTNVAWHQQKPGQSPKPLIYSASYRYSGVPSRFTGSGSGTDFTLTISNLQPEDFAEYFCQQYNSYPLTFGAGTKLEIK | bind to IL-9 with high affinity |  |
| VH2+VL4: humanized antibody, VH SEQ ID NO: 27, VL SEQ ID NO: 33 (antibody, V domains shown) VH: EVQLVQSGAEVMKPGASVKVSCKATGYTFTGYWIEWVRLAPGQGLEWMGEILPGSGSTNYNQKFQGRVTFTADTSTNTAYMELSSLRSEDTAIYYCARRTYYYGIPEDYWGQGTLVTVSS VL: DIVMTQSPKFLSASVGDRVTITCKASQNVGTNVAWHQQKPGQSPKPLIYSASYRYSGVPSRFTGSGSGTDFTLTISNLQPEDFAEYFCQQYNSYPLTFGAGTKLEIK | bind to IL-9 with high affinity |  |
| VH2+VL1: humanized antibody, VH SEQ ID NO: 27, VL SEQ ID NO: 30 (antibody, V domains shown) VH: EVQLVQSGAEVMKPGASVKVSCKATGYTFTGYWIEWVRLAPGQGLEWMGEILPGSGSTNYNQKFQGRVTFTADTSTNTAYMELSSLRSEDTAIYYCARRTYYYGIPEDYWGQGTLVTVSS VL: DIVMTQSQKFLSTSVGDRVTITCRASQNVGTNVAWHQQKPGQSPKPLIYSASYRYSGVPSRFTGSGSGTDFTLTISNLQPEDFAEYFCQQYNSYPLTFGAGTKLEIK | bind to IL-9 with high affinity |  |
| VH3+VL1: humanized antibody, VH SEQ ID NO: 28, VL SEQ ID NO: 30 (antibody, V domains shown) VH: EVQLVQSGAEVMKPGASVKVSCKATGYTFTGYWIEWVRLAPGQGLEWMGEILPGSGSTNYNQKLQGRVTFTADTSTNTAYMELRSLRSDDTAIYYCARRTYYYGIPEDYWGQGTLVTVSS VL: DIVMTQSQKFLSTSVGDRVTITCRASQNVGTNVAWHQQKPGQSPKPLIYSASYRYSGVPSRFTGSGSGTDFTLTISNLQPEDFAEYFCQQYNSYPLTFGAGTKLEIK | bind to IL-9 with high affinity |  |
| VH4+VL1: humanized antibody, VH SEQ ID NO: 29, VL SEQ ID NO: 30 (antibody, V domains shown) VH: EVQLKQSGAEVMKPGASVKLSCKATGYTFTGYWIEWVKLAPGHGLEWIGEILPGSGSTNYNEEFQGRVTFTADTSSNTAYMELSRLRSDDTAIYYCARRTYYYGIPEDYWGQGTLVTVSS VL: DIVMTQSQKFLSTSVGDRVTITCRASQNVGTNVAWHQQKPGQSPKPLIYSASYRYSGVPSRFTGSGSGTDFTLTISNLQPEDFAEYFCQQYNSYPLTFGAGTKLEIK | bind to IL-9 with high affinity |  |
| VH4+VL3: humanized antibody, VH SEQ ID NO: 29, VL SEQ ID NO: 32 (antibody, V domains shown) VH: EVQLKQSGAEVMKPGASVKLSCKATGYTFTGYWIEWVKLAPGHGLEWIGEILPGSGSTNYNEEFQGRVTFTADTSSNTAYMELSRLRSDDTAIYYCARRTYYYGIPEDYWGQGTLVTVSS VL: DIVMTQSPKFVSTSVGDRVTITCRASQNVGTNVAWHQQKPGQSPKPLIYSASYRYSGVPSRFTGSGSGTDFTLTISNLQPEDFAEYFCQQYNSYPLTFGAGTKLEIK | bind to IL-9 with high affinity |  |

Continued, in another order:

| binding to IL-9 [3] | Molecule | further results |
| --- | --- | --- |
| bind to IL-9 with high affinity | VH3+VL4: humanized antibody, VH SEQ ID NO: 28, VL SEQ ID NO: 33 (antibody, V domains shown) VH: EVQLVQSGAEVMKPGASVKVSCKATGYTFTGYWIEWVRLAPGQGLEWMGEILPGSGSTNYNQKLQGRVTFTADTSTNTAYMELRSLRSDDTAIYYCARRTYYYGIPEDYWGQGTLVTVSS VL: DIVMTQSPKFLSASVGDRVTITCKASQNVGTNVAWHQQKPGQSPKPLIYSASYRYSGVPSRFTGSGSGTDFTLTISNLQPEDFAEYFCQQYNSYPLTFGAGTKLEIK |  |
| bind to IL-9 with high affinity | VH1+VL3: humanized antibody, VH SEQ ID NO: 26, VL SEQ ID NO: 32 (antibody, V domains shown) VH: EVQLKQSGAEVMKPGASVKVSCKATGYTFTGYWIEWVRLAPGHGLEWMGEILPGSGSTNYNQKFQGRVTFTADTSINTAYMELSRLRSDDTAIYYCARRTYYYGIPEDYWGQGTLVTVSS VL: DIVMTQSPKFVSTSVGDRVTITCRASQNVGTNVAWHQQKPGQSPKPLIYSASYRYSGVPSRFTGSGSGTDFTLTISNLQPEDFAEYFCQQYNSYPLTFGAGTKLEIK |  |
| bind to IL-9 with high affinity | VH2+VL3: humanized antibody, VH SEQ ID NO: 27, VL SEQ ID NO: 32 (antibody, V domains shown) VH: EVQLVQSGAEVMKPGASVKVSCKATGYTFTGYWIEWVRLAPGQGLEWMGEILPGSGSTNYNQKFQGRVTFTADTSTNTAYMELSSLRSEDTAIYYCARRTYYYGIPEDYWGQGTLVTVSS VL: DIVMTQSPKFVSTSVGDRVTITCRASQNVGTNVAWHQQKPGQSPKPLIYSASYRYSGVPSRFTGSGSGTDFTLTISNLQPEDFAEYFCQQYNSYPLTFGAGTKLEIK |  |
| bind to IL-9 with high affinity | VH3+VL3: humanized antibody, VH SEQ ID NO: 28, VL SEQ ID NO: 32 (antibody, V domains shown) VH: EVQLVQSGAEVMKPGASVKVSCKATGYTFTGYWIEWVRLAPGQGLEWMGEILPGSGSTNYNQKLQGRVTFTADTSTNTAYMELRSLRSDDTAIYYCARRTYYYGIPEDYWGQGTLVTVSS VL: DIVMTQSPKFVSTSVGDRVTITCRASQNVGTNVAWHQQKPGQSPKPLIYSASYRYSGVPSRFTGSGSGTDFTLTISNLQPEDFAEYFCQQYNSYPLTFGAGTKLEIK |  |
